This experiment addresses chimera protein of europium (Eu) labeled human glycoprotein Ib α-chain and a mouse IgG2a Fc region (human; mouse) (UniProt P07359).
Chain of UniProt P07359 (P07359 17-335 limits assumed, change not shown): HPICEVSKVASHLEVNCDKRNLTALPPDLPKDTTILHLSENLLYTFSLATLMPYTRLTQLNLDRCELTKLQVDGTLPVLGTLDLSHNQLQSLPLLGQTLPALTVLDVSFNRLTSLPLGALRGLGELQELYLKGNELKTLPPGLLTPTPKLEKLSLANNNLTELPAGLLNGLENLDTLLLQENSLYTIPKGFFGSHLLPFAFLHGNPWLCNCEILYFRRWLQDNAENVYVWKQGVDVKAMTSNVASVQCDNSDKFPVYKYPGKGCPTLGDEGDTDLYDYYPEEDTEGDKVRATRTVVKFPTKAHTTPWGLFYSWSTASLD

For orientation: IC50 means the concentration at which inhibition is half-maximal. Substance “AS1051-PEG5000 (from UniProt P81508 1-126)” gave a concentration for half-maximal inhibition (IC50) of 0.0981 µg/mL.
In turn, “AS1051-PEG20000 (from UniProt P81508 1-126)” yielded an IC50 of 0.0903 µg/mL.

The record behind these values is patent publication US20020198363A1.
